These results are taken from article PMC12072466, “Mechanisms of Viral DNA Replication of Human Papillomavirus: E2 Protein-Dependent Recruitment of E1 DNA Helicase to the Origin of DNA Replication” (International Journal of Molecular Sciences, 2025).

The term stoichiometry N denotes the number of molecules, sites or subunits per partner or assembly.

Data set [1] deals with T1, E1 helicase;E2 (Human papillomavirus 16 (Methods 4.2; …, UniProt P03114;P03120 1-649;1-365, |). Put plainly: EMSA; 4 mM Mg2+, 1.4 mM ATP; E2 2.8 nM, E1 43-347 nM; C3* complex even at low E1. The note with it: protein: recombinant;recombinant; tags: C-terminal 10xHis;C-terminal 10xHis; chain copies: 6;2; label: 5' 32P; blunt. (Mobility shift assays separate free from complexed probe on a gel.)
T1 sequence (P03120 whole entry, one chain of several): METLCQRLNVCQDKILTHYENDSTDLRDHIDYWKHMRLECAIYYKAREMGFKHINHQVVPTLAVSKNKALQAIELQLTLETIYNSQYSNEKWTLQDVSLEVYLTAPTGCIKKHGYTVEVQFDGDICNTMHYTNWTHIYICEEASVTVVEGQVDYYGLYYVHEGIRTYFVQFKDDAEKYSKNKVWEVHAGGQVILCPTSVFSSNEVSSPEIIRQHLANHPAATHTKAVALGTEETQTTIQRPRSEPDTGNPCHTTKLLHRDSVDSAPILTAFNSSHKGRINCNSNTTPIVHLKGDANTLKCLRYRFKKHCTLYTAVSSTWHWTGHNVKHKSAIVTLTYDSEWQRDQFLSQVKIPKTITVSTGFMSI

Data set [2] deals with the molecule itself. As to the kind of experiment: dynamic light scattering; purified E1 in solution; oligomeric state; conditions not shown (Figure S3).
Data set [3] deals with T2, E2 (Human papillomavirus 16 (Methods 4.2; …, UniProt P03120 1-365). As to the kind of experiment: EMSA; 4 mM Mg2+, 1.4 mM ATP; E2 2.8 nM; C1* complex, two E2 dimers. To be noted: protein: recombinant; tags: C-terminal 10xHis; chain copies: 2; label: 5' 32P; blunt.
T2 sequence (P03120 whole entry): as the sequence (P03120 whole entry, one chain of several) above
Data set [4] deals with T1, E1 helicase;E2. Put plainly: EMSA; 4 mM Mg2+, 1.4 mM ATP; E2 2.8 nM, E1 43-347 nM; C2* and C3* complexes. The note with it: protein: recombinant;recombinant; tags: C-terminal 10xHis;C-terminal 10xHis; chain copies: 6;2; label: 5' 32P; blunt.
Data set [5] deals with T2, E2. Put plainly: EMSA; 4 mM Mg2+, 1.4 mM ATP; E2 2.8 nM; C1* complex, E2 dimer. The note with it: protein: recombinant; tags: C-terminal 10xHis; chain copies: 2; label: 5' 32P; blunt.

B1: Oligo II, E2 BS1+2 (50 bp) (dsDNA)
DNA 1: GGCGGGACCGAAAACGGTTCAACCGAAAACGGTTATATATAAACCAGCCC
DNA 2: GGGCTGGTTTATATATAACCGTTTTCGGTTGAACCGTTTTCGGTCCCGCC
As for B1, the binding result with E1 helicase;E2 [1] is given as “binds”.

B2: full-length HPV16 E1 helicase (enzyme)
chain: MADPAGTNGEEGTGCNGWFYVEAVVEKKTGDAISDDENENDSDTGEDLVDFIVNDNDYLTQAETETAHALFTAQEAKQHRDAVQVLKRKYLVSPLSDISGCVDNNISPRLKAICIEKQSRAAKRRLFESEDSGYGNTEVETQQMLQVEGRHETETPCSQYSGGSGGGCSQYSSGSGGEGVSERHTICQTPLTNILNVLKTSNAKAAMLAKFKELYGVSFSELVRPFKSNKSTCCDWCIAAFGLTPSIADSIKTLLQQYCLYLHIQSLACSWGMVVLLLVRYKCGKNRETIEKLLSKLLCVSPMCMMIEPPKLRSTAAALYWYKTGISNISEVYGDTPEWIQRQTVLQHSFNDCTFELSQMVQWAYDNDIVDDSEIAYKYAQLADTNSNASAFLKSNSQAKIVKDCATMCRHYKRAEKKQMSMSQWIKYRCDRVDDGGDWKQIVMFLRYQGVEFMSFLTALKRFLQGIPKKNCILLYGAANTGKSLFGMSLMKFLQGSVICFVNSKSHFWLQPLADAKIGMLDDATVPCWNYIDDNLRNALDGNLVSMDVKHRPLVQLKCPPLLITSNINAGTDSRWPYLHNRLVVFTFPNEFPFDENGNPVYELNDKNWKSFFSRTWSRLSLHEDEDKENDGDSLPTFKCVSGQNTNTL
notes: Replication protein E1 (DNA helicase) of human papillomavirus type 16, full-length, codon-optimized synthetic gene in pET28a; about 75 kDa on SDS-PAGE; Hexamer in solution by dynamic light scattering; also called HPV E1; E1 DNA helicase
Turning to B2, in data set [2], the “stoichiometry N” value is 6.

B3: Oligo I, E2 BS1+2+E1BS (124 bp) (dsDNA)
DNA 1: GTAACCCACACCCTACATATTTCCTTCTTATACTTAATAACAATCTTAGTTTAAAAAAGAGGAGGGACCGAAAACGGTTCAACCGAAAACGGTTATATATAAACCAGCCCAAAAAATTAGCAGA
DNA 2: TCTGCTAATTTTTTGGGCTGGTTTATATATAACCGTTTTCGGTTGAACCGTTTTCGGTCCCTCCTCTTTTTTAAACTAAGATTGTTATTAAGTATAAGAAGGAAATATGTAGGGTGTGGGTTAC
B3: the binding result with E2 [3] and with E1 helicase;E2 [4] was “binds” in each case.

B4: Oligo III, E2 BS (24 bp) (dsDNA)
DNA 1: CTTGCAACCGTTTTCGGTTGCCCT
DNA 2: AGGGCAACCGAAAACGGTTGCAAG
Take B4: the binding result in the data set with E2 [5] is on record as “binds”.
